The chains are these.
B1: CFP-H38-dh2 (CFP-H37 with R64G, F269L) (protein)
chain: MTSNRADTRVIVVGGGGTIGSSTALHLVRSGYAPANITVLDTFEIPSAQSAGHDLNKIMGIDHGNKVNLQMSLEARQMWKEDELFQPFFHNTGRMDCEHTPKGIEKLKKLYQKLHDAGAGLEKTHAWLDNEDEILSKMPLLQRDQIQGWKAIWSQDGGWLAAAKAINAIGQFLKERGVKFGFGGAGSFKQPLFDDEGTTCIGVETADGTKYYADKVVLAAGAWSPTLVDLEDQCCSKAWVYAHIQLTPEEAAEYKGVPVVYNGEFGFFLEPDEFGVIKVCDEFPGFSRFKEHQPYGAPSPKRISVPRSHAKHPTDTYPDASEVSIKKAIATFLPRFQDKELFNRALCWCTDTADSTLLMCEHPKWKNFILATGDSGHSFKILPNVGKYVVELIEGRLPEEMAYQWRWRPGGDALKSRRAAPPKDLADMPGWKHDPKL
B2: CFP-H38 (CFP-T7-H37-R64G), modified amadoriase derived from Coniochaeta sp. (protein)
chain: B1 chain with L269F
B3: CFP-H40-dh1 (CFP-H37 with R64G, H99S, L110Y, F269M) (protein)
chain: B1 chain with H99S, L110Y, L269M
B4: CFP-H40-dh4 (CFP-H37 with R64G, H99S, L110Y, F269M, C280Q) (protein)
chain: B1 chain with H99S, L110Y, L269M, C280Q
B5: CFP-H40 (CFP-T7-H37-R64G/L110Y/H99S), modified amadoriase derived from Coniochaeta sp. (protein)
chain: B1 chain with H99S, L110Y, L269F
B6: CFP-H40-dh3 (CFP-H37 with R64G, H99S, L110Y, C280Q) (protein)
chain: B1 chain with H99S, L110Y, L269F, C280Q
B7: CFP-H38-dh1 (CFP-H37 with R64G, F269M) (protein)
chain: B1 chain with L269M
B8: CFP-H38-dh3 (CFP-H37 with R64G, C280Q) (protein)
chain: B1 chain with L269F, C280Q
B9: CFP-H40-dh2 (CFP-H37 with R64G, H99S, L110Y, F269L) (protein)
chain: B1 chain with H99S, L110Y

Numbering of substitutions follows the chain as printed. Names and notes keep the numbering of the source.

9 proteins from patent US20190119715 can be followed below.

The first series addresses T1, α-fructosyl hexapeptide (α-fructosyl-valyl-histidyl-leucyl-threonyl-proryl-glutamic acid) (not fully specified).
T1 chain: VHLTPE
In the case of B1, the Dehydrogenase activity (%) with 1 mM αF6P as substrate, relative to oxidase activity of CFP-H38 = 100 was found to be 8.23%; the OX/DH (%) relative to CFP-H38 = 100 came out at 30.7%; the OX/DH (ratio of oxidase to dehydrogenase activity, αF6P as substrate) is 3.43; the Oxidase activity (%) with 1 mM αF6P as substrate, relative to oxidase activity of CFP-H38 = 100 was found to be 28.3%.
The corresponding values for B2 are 8.94%, 100%, 11.2 and 100%.
As to B3, the Dehydrogenase activity (%) with 1 mM αF6P as substrate, relative to oxidase activity of CFP-H40 = 100 worked out at 16%; the OX/DH (%) relative to CFP-H40 = 100 came out at 21%; the OX/DH (ratio of oxidase to dehydrogenase activity, αF6P as substrate) is 1.3; the Oxidase activity (%) with 1 mM αF6P as substrate, relative to oxidase activity of CFP-H40 = 100 was determined as 21%.
On to B4, for which the Dehydrogenase activity (%) with 1 mM αF6P as substrate, relative to oxidase activity of CFP-H40 = 100 was found to be 5.4%; the OX/DH (%) relative to CFP-H40 = 100 was determined as 5.7%; the OX/DH (ratio of oxidase to dehydrogenase activity, αF6P as substrate) is 0.35; the Oxidase activity (%) with 1 mM αF6P as substrate, relative to oxidase activity of CFP-H40 = 100 came to 1.9%.
As for B5, the Dehydrogenase activity (%) with 1 mM αF6P as substrate, relative to oxidase activity of CFP-H40 = 100 was 16%; the OX/DH (%) relative to CFP-H40 = 100 stood at 100%; the OX/DH (ratio of oxidase to dehydrogenase activity, αF6P as substrate) turned out to be 6.2; the Oxidase activity (%) with 1 mM αF6P as substrate, relative to oxidase activity of CFP-H40 = 100 was 100%.
For B6, the Dehydrogenase activity (%) with 1 mM αF6P as substrate, relative to oxidase activity of CFP-H40 = 100 was determined as 29%; the OX/DH (%) relative to CFP-H40 = 100 was 7.3%; the OX/DH (ratio of oxidase to dehydrogenase activity, αF6P as substrate) stood at 0.45; the Oxidase activity (%) with 1 mM αF6P as substrate, relative to oxidase activity of CFP-H40 = 100 is 13%.
For the protein B7, the Dehydrogenase activity (%) with 1 mM αF6P as substrate, relative to oxidase activity of CFP-H38 = 100 came out at 24%; the OX/DH (%) relative to CFP-H38 = 100 amounted to 20%; the OX/DH (ratio of oxidase to dehydrogenase activity, αF6P as substrate) is 2.23; the Oxidase activity (%) with 1 mM αF6P as substrate, relative to oxidase activity of CFP-H38 = 100 worked out at 53.4%.
As to B8, the Dehydrogenase activity (%) with 1 mM αF6P as substrate, relative to oxidase activity of CFP-H38 = 100 was 3.22%; the OX/DH (%) relative to CFP-H38 = 100 came out at 2.7%; the OX/DH (ratio of oxidase to dehydrogenase activity, αF6P as substrate) was 0.3; the Oxidase activity (%) with 1 mM αF6P as substrate, relative to oxidase activity of CFP-H38 = 100 was determined as 1%. The “dehydrogenase activity of a 38.4 mg/ml CFP-H38-dh3 solution” value is 38.4 mg/ml (17.8 U/ml) CFP-H38-dh3 solution and the “dehydrogenase activity of an 8.8 mg/ml CFP-H38-dh3 solution” value is listed as 8.8 mg/ml (4.1 U/ml) CFP-H38-dh3 solution.
On to B9, for which the Dehydrogenase activity (%) with 1 mM αF6P as substrate, relative to oxidase activity of CFP-H40 = 100 turned out to be 5.4%; the OX/DH (%) relative to CFP-H40 = 100 was 23%; the OX/DH (ratio of oxidase to dehydrogenase activity, αF6P as substrate) was 1.4; the Oxidase activity (%) with 1 mM αF6P as substrate, relative to oxidase activity of CFP-H40 = 100 worked out at 7.5%.

The target of another series is hemoglobin A1c (HbA1c).
Chain of hemoglobin A1c (HbA1c) (chain, as listed by the source, chain 1 of 2): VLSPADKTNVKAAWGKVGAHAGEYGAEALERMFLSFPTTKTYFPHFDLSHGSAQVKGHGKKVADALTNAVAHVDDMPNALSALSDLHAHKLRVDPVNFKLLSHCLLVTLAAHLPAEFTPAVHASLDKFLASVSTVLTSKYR
Chain of hemoglobin A1c (HbA1c) (chain, as listed by the source, chain 2 of 2): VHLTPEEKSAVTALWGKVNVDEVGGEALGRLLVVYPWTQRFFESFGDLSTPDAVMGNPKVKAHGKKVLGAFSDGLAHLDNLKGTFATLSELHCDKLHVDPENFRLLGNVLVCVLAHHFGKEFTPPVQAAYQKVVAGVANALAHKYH
Take B8: the “current response on a screen-printed carbon electrode at 83, 166, 249 and 332 µg/ml HbA1c” value is on record as “HbA1c was quantified with high accuracy using CFP-H38-dh3”; the “dehydrogenase activity on HbA1c (absorbance at 433 nm, WST-3)” value is listed as “a significant increase was observed in the absorbance, compared with the control. That is, it was confirmed that CFP-H38-dh3 exhibited dehydrogenase activity on HbA1c”.
